Numbered stars: 1 amine (or outer) side, 2 acyl side, 3 side chain; on linkers, the order of the positions; unused ones are H or OH. Square brackets hold non-standard residues; d marks the D form. Side chains are listed from the residue outwards. Ends that are not written are not given here. * marks the point of attachment. C20 diacid = O=C(O)CCCCCCCCCCCCCCCCCCC(=O)*; C18 diacid = O=C(O)CCCCCCCCCCCCCCCCC(=O)*; γGlu = O=C(O)[C@H](CCC(=O)[*:2])N[*:1]; αMeF = C[C@](N)(Cc1ccccc1)C(=O)O; AEEA = NCCOCCOCC(=O)O; Aib = CC(C)(N)C(=O)O
B1: Example 324 (peptide)
peptide: YXEGTFTSDYSIXLDKKAQXAFIEYLIAGGPSSGAPPPS
modifications: Aib2, αMeL13, K17 conjugated to (2-[2-(2-Amino-ethoxy)-ethoxy]-acetyl)2-(γ-Glu)-CO-(CH2)18-CO2H (printed "(CH2)1s"), Aib20, C-terminal amide (NH2)
B2: Example 328 (peptide)
peptide: FXEGTFTSDYSIXLDKKAQXAFIEYLIEAGPSSGAPPPS
modifications: Aib2, αMeL13, K17 conjugated to (2-[2-(2-Amino-ethoxy)-ethoxy]-acetyl)2-(γ-Glu)-CO-(CH2)16-CO2H, Aib20, C-terminal amide (NH2)
B3: Example 319 (peptide)
peptide: Y[Aib]EGTFTSDYSILLDKK([AEEA-AEEA-γGlu-C20 diacid])AQ[Aib]EFIEYLIAGGPSSGAPPPS-NH2
modifications: N-terminus assumed
SMILES: CC[C@H](C)[C@H](NC(=O)[C@H](CC(C)C)NC(=O)[C@H](Cc1ccc(O)cc1)NC(=O)[C@H](CCC(=O)O)NC(=O)[C@@H](NC(=O)[C@H](Cc1ccccc1)NC(=O)[C@H](CCC(=O)O)NC(=O)C(C)(C)NC(=O)[C@H](CCC(N)=O)NC(=O)[C@H](C)NC(=O)[C@H](CCCCNC(=O)COCCOCCNC(=O)COCCOCCNC(=O)CC[C@H](NC(=O)CCCCCCCCCCCCCCCCCCC(=O)O)C(=O)O)NC(=O)[C@H](CCCCN)NC(=O)[C@H](CC(=O)O)NC(=O)[C@H](CC(C)C)NC(=O)[C@H](CC(C)C)NC(=O)[C@@H](NC(=O)[C@H](CO)NC(=O)[C@H](Cc1ccc(O)cc1)NC(=O)[C@H](CC(=O)O)NC(=O)[C@H](CO)NC(=O)[C@@H](NC(=O)[C@H](Cc1ccccc1)NC(=O)[C@@H](NC(=O)CNC(=O)[C@H](CCC(=O)O)NC(=O)C(C)(C)NC(=O)[C@@H](N)Cc1ccc(O)cc1)[C@@H](C)O)[C@@H](C)O)[C@@H](C)CC)[C@@H](C)CC)C(=O)N[C@@H](C)C(=O)NCC(=O)NCC(=O)N1CCC[C@H]1C(=O)N[C@@H](CO)C(=O)N[C@@H](CO)C(=O)NCC(=O)N[C@@H](C)C(=O)N1CCC[C@H]1C(=O)N1CCC[C@H]1C(=O)N1CCC[C@H]1C(=O)N[C@@H](CO)C(N)=O
B4: Example 298 (peptide)
peptide: Y[Aib]EGTFTSDYSILLDKK([AEEA-AEEA-γGlu-C18 diacid])AQ[Aib]AFVEYLIEGGPSSG-NH2
modifications: N-terminus assumed
SMILES: CC[C@H](C)[C@H](NC(=O)[C@H](CC(C)C)NC(=O)[C@H](Cc1ccc(O)cc1)NC(=O)[C@H](CCC(=O)O)NC(=O)[C@@H](NC(=O)[C@H](Cc1ccccc1)NC(=O)[C@H](C)NC(=O)C(C)(C)NC(=O)[C@H](CCC(N)=O)NC(=O)[C@H](C)NC(=O)[C@H](CCCCNC(=O)COCCOCCNC(=O)COCCOCCNC(=O)CC[C@H](NC(=O)CCCCCCCCCCCCCCCCC(=O)O)C(=O)O)NC(=O)[C@H](CCCCN)NC(=O)[C@H](CC(=O)O)NC(=O)[C@H](CC(C)C)NC(=O)[C@H](CC(C)C)NC(=O)[C@@H](NC(=O)[C@H](CO)NC(=O)[C@H](Cc1ccc(O)cc1)NC(=O)[C@H](CC(=O)O)NC(=O)[C@H](CO)NC(=O)[C@@H](NC(=O)[C@H](Cc1ccccc1)NC(=O)[C@@H](NC(=O)CNC(=O)[C@H](CCC(=O)O)NC(=O)C(C)(C)NC(=O)[C@@H](N)Cc1ccc(O)cc1)[C@@H](C)O)[C@@H](C)O)[C@@H](C)CC)C(C)C)C(=O)N[C@@H](CCC(=O)O)C(=O)NCC(=O)NCC(=O)N1CCC[C@H]1C(=O)N[C@@H](CO)C(=O)N[C@@H](CO)C(=O)NCC(N)=O
B5: Example 138 (peptide)
peptide: Y[Aib]EGT[αMeF]TSDYSIXLDKK([AEEA-AEEA-γGlu-C20 diacid])AQ[Aib]SFIEYLIEGGPSSGAPPPS-NH2
modifications: not fully specified (residue 13); printed as Y-Aib-EGT-αMeF-TSDYSI-αMeF-LDKK((2-[2-(2-Amino-ethoxy)-ethoxy]-acetyl)2-(γ-Glu)-CO-(CH2)18-CO2H)AQ-Aib-SFIEYLIEGGPSSGAPPPS-NH2
B6: Example 3 (peptide)
peptide: YXEGTXTSDYSIXLDXKAQXEFIXYLIEGGPSSGAPPPS
modifications: Aib2, αMeF(2F)6, αMeL13, Orn16, K17 conjugated to (2-[2-(2-Amino-ethoxy)-ethoxy]-acetyl)2-(γ-Glu)-CO-(CH2)18-CO2H, Aib20, D-Glu24, C-terminal amide (NH2)
B7: Example 323 (peptide)
peptide: YXEGTFTSDYSIXLDEKAQXAFIEYLIEGGPSSGAPPPS
modifications: Aib2, αMeL13, K17 conjugated to (2-[2-(2-Amino-ethoxy)-ethoxy]-acetyl)2-(γ-Glu)-CO-(CH2)16-CO2H, Aib20, C-terminal amide (NH2)
B8: Example 186 (peptide)
peptide: YXEGTXTSDXSIXLDEKAQXEFIXYLIEGGPSSGAPPPS
modifications: Y-Aib-EGT-αMeF(2F)-TSD-αMeY-SI-αMeF-LDEK((2-[2-(2-Amino-ethoxy)-ethoxy]-acetyl)2-(γ-Glu)-CO-(CH2)18-CO2H)AQ-Aib-EFI-(D-Glu)-YLIEGGPSSGAPPPS-NH2
B9: Example 226 (peptide)
peptide: YXEGTXTSDYSILLDEKAQXEFIXYLIEGGPSSGAPPPS
modifications: Y-Aib-EGT-αMeF(2F)-TSDYSILLDEK((2-[2-(2-Amino-ethoxy)-ethoxy]-acetyl)2-(γ-Glu)-CO-(CH2)18-CO2H)AQ-Aib-EFI-(D-Glu)-YLIEGGPSSGAPPPS-NH2
B10: Example 225 (peptide)
peptide: YXEGTXTSDYSIXLDEKAQXEFIXYLIEGGPSSGAPPPS
modifications: Y-Aib-EGT-αMeF-TSDYSI-Aib-LDEK((2-[2-(2-Amino-ethoxy)-ethoxy]-acetyl)2-(γ-Glu)-CO-(CH2)18-CO2H)AQ-Aib-EFI-(D-Glu)-YLIEGGPSSGAPPPS-NH2
B11: Example 325 (peptide)
peptide: YXEGTXTSDYSILLDKKAQXAFIEYLIEGGPSSGAPPPS
modifications: Aib2, αMeF(2F)6, K17 conjugated to (2-[2-(2-Amino-ethoxy)-ethoxy]-acetyl)2-(γ-Glu)-CO-(CH2)18-CO2H, Aib20, C-terminal amide (NH2)
B12: Example 5 (peptide)
peptide: YXEGTXTSDVSIXLDXKAQXEFIXXLIEGGPSSGAPPPS
modifications: Aib2, αMeF(2F)6, αMeL13, Orn16, K17 conjugated to (2-[2-(2-Amino-ethoxy)-ethoxy]-acetyl)2-(γ-Glu)-CO-(CH2)16-CO2H, Aib20, D-Glu24, αMeY25, C-terminal amide (NH2)
B13: Example 317 (peptide)
peptide: Y[Aib]EGTFTSDYSILLDKK([AEEA-AEEA-γGlu-C20 diacid])AQ[Aib]AFIEYLIAGGPSSG-NH2
modifications: N-terminus assumed
SMILES: CC[C@H](C)[C@H](NC(=O)[C@H](CC(C)C)NC(=O)[C@H](Cc1ccc(O)cc1)NC(=O)[C@H](CCC(=O)O)NC(=O)[C@@H](NC(=O)[C@H](Cc1ccccc1)NC(=O)[C@H](C)NC(=O)C(C)(C)NC(=O)[C@H](CCC(N)=O)NC(=O)[C@H](C)NC(=O)[C@H](CCCCNC(=O)COCCOCCNC(=O)COCCOCCNC(=O)CC[C@H](NC(=O)CCCCCCCCCCCCCCCCCCC(=O)O)C(=O)O)NC(=O)[C@H](CCCCN)NC(=O)[C@H](CC(=O)O)NC(=O)[C@H](CC(C)C)NC(=O)[C@H](CC(C)C)NC(=O)[C@@H](NC(=O)[C@H](CO)NC(=O)[C@H](Cc1ccc(O)cc1)NC(=O)[C@H](CC(=O)O)NC(=O)[C@H](CO)NC(=O)[C@@H](NC(=O)[C@H](Cc1ccccc1)NC(=O)[C@@H](NC(=O)CNC(=O)[C@H](CCC(=O)O)NC(=O)C(C)(C)NC(=O)[C@@H](N)Cc1ccc(O)cc1)[C@@H](C)O)[C@@H](C)O)[C@@H](C)CC)[C@@H](C)CC)C(=O)N[C@@H](C)C(=O)NCC(=O)NCC(=O)N1CCC[C@H]1C(=O)N[C@@H](CO)C(=O)N[C@@H](CO)C(=O)NCC(N)=O
B14: Example 326 (peptide)
peptide: F[Aib]EGTFTSDYSILLDKK([AEEA-AEEA-γGlu-C20 diacid])AQ[Aib]AFIEYLIEGGPSSGAPPPS-NH2
B15: Example 318 (peptide)
peptide: Y[Aib]EGTFTSDYSILLDKK([AEEA-AEEA-γGlu-C20 diacid])AQ[Aib]EFIEYLIAGGPSSG-NH2
modifications: N-terminus assumed
SMILES: CC[C@H](C)[C@H](NC(=O)[C@H](CC(C)C)NC(=O)[C@H](Cc1ccc(O)cc1)NC(=O)[C@H](CCC(=O)O)NC(=O)[C@@H](NC(=O)[C@H](Cc1ccccc1)NC(=O)[C@H](CCC(=O)O)NC(=O)C(C)(C)NC(=O)[C@H](CCC(N)=O)NC(=O)[C@H](C)NC(=O)[C@H](CCCCNC(=O)COCCOCCNC(=O)COCCOCCNC(=O)CC[C@H](NC(=O)CCCCCCCCCCCCCCCCCCC(=O)O)C(=O)O)NC(=O)[C@H](CCCCN)NC(=O)[C@H](CC(=O)O)NC(=O)[C@H](CC(C)C)NC(=O)[C@H](CC(C)C)NC(=O)[C@@H](NC(=O)[C@H](CO)NC(=O)[C@H](Cc1ccc(O)cc1)NC(=O)[C@H](CC(=O)O)NC(=O)[C@H](CO)NC(=O)[C@@H](NC(=O)[C@H](Cc1ccccc1)NC(=O)[C@@H](NC(=O)CNC(=O)[C@H](CCC(=O)O)NC(=O)C(C)(C)NC(=O)[C@@H](N)Cc1ccc(O)cc1)[C@@H](C)O)[C@@H](C)O)[C@@H](C)CC)[C@@H](C)CC)C(=O)N[C@@H](C)C(=O)NCC(=O)NCC(=O)N1CCC[C@H]1C(=O)N[C@@H](CO)C(=O)N[C@@H](CO)C(=O)NCC(N)=O
B16: Example 304 (peptide)
peptide: YXEGTFTSDYSIXLDKKAQXEFIEYLIEGGPSSG
modifications: Aib2, αMeL13, K17 conjugated to (2-[2-(2-Amino-ethoxy)-ethoxy]-acetyl)2-(γ-Glu)-CO-(CH2)16-CO2H, Aib20, C-terminal amide (NH2)
B17: Example 306 (peptide)
peptide: YXEGTFTSDYSIXLDKKAQXEFIEYLIAGGPSSG
modifications: Aib2, αMeL13, K17 conjugated to (2-[2-(2-Amino-ethoxy)-ethoxy]-acetyl)2-(γ-Glu)-CO-(CH2)16-CO2H, Aib20, C-terminal amide (NH2)

What was measured:
Assay in all cases: cell-based or functional assay
human GLP-1 receptor = human GLP-1 receptor (human, UniProt P43220 24-463)
[1] = molecular target: T1, human gastric inhibitory peptide receptor (GIPR) (human, UniProt P48546 22-466)
T1 sequence (looked up): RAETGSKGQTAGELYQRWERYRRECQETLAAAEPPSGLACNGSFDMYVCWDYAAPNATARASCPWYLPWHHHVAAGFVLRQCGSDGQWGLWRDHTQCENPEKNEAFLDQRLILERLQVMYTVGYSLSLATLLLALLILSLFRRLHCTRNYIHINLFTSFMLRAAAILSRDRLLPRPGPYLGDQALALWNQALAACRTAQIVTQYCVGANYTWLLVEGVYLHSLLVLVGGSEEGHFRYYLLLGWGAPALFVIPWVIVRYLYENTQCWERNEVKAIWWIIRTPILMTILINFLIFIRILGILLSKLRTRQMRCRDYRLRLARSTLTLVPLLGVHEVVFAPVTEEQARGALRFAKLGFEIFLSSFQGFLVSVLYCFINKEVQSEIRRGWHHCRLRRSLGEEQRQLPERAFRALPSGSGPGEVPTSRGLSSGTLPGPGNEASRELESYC

[2] = molecular target: human GLP-1 receptor (GLP-1R) (human, UniProt P43220 24-463)

Row | Binder | hGLP1R GTPgS % Top (human GLP-1 receptor) [%] | hGLP1R GTPgS Rel EC50 (human GLP-1 receptor) [nM] | hGIPR cAMP Rel EC50 [1] [nM] | hGLP1R cAMP EC50 ratio [2] | hGLP1R cAMP Rel EC50 [2] [nM]
1 | B1 | 84.5 | 0.475 |  |  | 
2 | B2 | 66.3 | 0.481 |  |  | 
3 | B3 | 65.7 | 0.657 |  |  | 
4 | B4 | 57.3 | 1.03 |  |  | 
5 | B5 |  |  | 0.0581 |  | 
6 | B6 | 95.4 | 0.421 |  |  | 
7 | B7 | 81.9 | 0.79 |  |  | 
8 | B8 |  |  |  | 0.572 | 0.0939
9 | B9 |  |  | 0.0461 |  | 
10 | B10 |  |  | 0.101 |  | 
11 | B11 | 97.9 | 0.414 |  |  | 
12 | B12 | 91.3 | 0.196 |  |  | 
13 | B13 | 53.7 | 0.536 |  |  | 
14 | B14 | 61.6 | 0.663 |  |  | 
15 | B15 | 58.4 | 0.415 |  |  | 
16 | B16 | 77.1 | 0.561 |  |  | 
17 | B17 | 76.1 | 0.378 |  |  | 
